Measurements published in patent US10919966B2, “Antibody to programmed death-ligand 1 (PD-L1) and use thereof” (Y-BIOLOGICS INC., dated 2021).

B1: PDL1-16E12 (antibody, V domains shown)
VH: QMQLVQSGAEVKKPGSSVKVSCKASGGTFSSYAISWVRQAPGQGLEWMGRIIPILGIANYAQKFQGRVTITADKSTSTAYMELSSLRSEDTAVYYCAKPRDGYNLVAFDIWGQGTMVTVSS
VL: QLVLTQPPSVSGAPGQTVTISCTGSSSNIGAGYDVHWYQQLPGTAPKLLIYGNNNRPSGVPDRFSGSKSGALASLAITGLQAEDGADYHCQSYDNSLSAHAVFGTGTKVTVL
B2: PDL1-16E12 (LS/4F5) (antibody, V domains shown)
VH: B1 VH
VL: QLVLTQPPSVSGAPGQRVTISCTGSSSNIGAGYDVHWYQQLPGAAPKLLIYGDINRPSGVPDRFSGSKSGISASLAITGLQAEDEADYYCQSYDSSLSGGVFGGGTKLTVL

Legend:
PD-L1-hFc [1] = biological target: T1, PD-L1-hFc (human, UniProt Q9NZQ7); experiment: SPR, ProteOn XPR36, PD-L1-hFc immobilised on GLC chip, antibody 30 nM to 0.123 nM
Protocol: (§1) A ProteOn XPR36 (BioRad) instrument was used. The GLC sensor chip (BioRad) was mounted on the instrument and washed with PBST buffer, and the carboxymethyldextran surface was activated with an EDC/sulfo-NHS mixed solution. PD-L1-hFc dissolved at a concentration of 5 ug/ml in a 10 mM sodium acetate buffer solution (pH 5.0) was injected and immobilized on the GLC sensor chip.
In order to deactivate the activated carboxyl groups that remain unreacted with the PD-L1 protein, 1 M ethanolamine was flowed and 10 mM glycine (pH 2.0) was injected in order to wash proteins that remain unbound to the sensor chip.

PD-L1-hFc [2] = biological target: T1, PD-L1-hFc; experiment: SPR, ProteOn XPR36, human PD-L1 (PD-L1-hFc immobilised)
Protocol: as §1
In order to deactivate the activated carboxyl groups that remain unreacted with the PD-L1 protein, 1 M ethanolamine was flowed and 10 mM glycine (pH 2.0) was injected in order to wash proteins that remain unbound to the sensor chip. Then, sensogram data were collected during binding and dissociation over time while allowing the antibodies to flow at a flow rate of 30 µL/min (30 nM to 0.123 nM) for 10 min using PBST buffer.

cynomolgus PD-L1 protein = cynomolgus PD-L1 protein (cynomolgus, UniProt G7PSE7); experiment: SPR, ProteOn XPR36, cynomolgus PD-L1 protein (construct not described)

T1 sequence (Q9NZQ7 other isoform, or with tags, fused parts or gaps): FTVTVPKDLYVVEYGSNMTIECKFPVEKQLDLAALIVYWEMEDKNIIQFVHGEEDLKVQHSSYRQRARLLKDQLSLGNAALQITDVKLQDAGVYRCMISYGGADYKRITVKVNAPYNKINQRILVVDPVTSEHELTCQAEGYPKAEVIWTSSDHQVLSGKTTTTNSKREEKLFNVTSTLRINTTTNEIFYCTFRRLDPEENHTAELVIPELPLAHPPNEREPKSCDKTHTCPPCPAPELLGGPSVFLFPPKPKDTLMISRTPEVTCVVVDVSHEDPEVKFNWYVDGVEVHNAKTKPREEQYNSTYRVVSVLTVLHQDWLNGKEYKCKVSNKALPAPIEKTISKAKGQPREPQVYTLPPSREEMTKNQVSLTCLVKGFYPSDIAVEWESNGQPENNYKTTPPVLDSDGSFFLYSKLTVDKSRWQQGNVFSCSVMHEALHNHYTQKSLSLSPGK

Binder	Kd (PD-L1-hFc [1]) [pM]	Kd (PD-L1-hFc [2]) [pM]	koff (PD-L1-hFc [2]) [s⁻¹]	kon (PD-L1-hFc [2]) [M⁻¹ s⁻¹]	Kd (cynomolgus PD-L1 protein) [pM]	koff (cynomolgus PD-L1 protein) [s⁻¹]
B1	45					
B2		1	1e-07	310000	1	1e-07
